The data set has as its target recombinant activated coagulation factor VII (FVIIa, AryoSeven) (UniProt P08709;P08709 61-212;213-466). The data set can be described thus: fluorescence intensity change (FAM), plate reader; 5 mM Ca2+, 5 mM Mg2+; 40 mM Tris, 117 mM NaCl, 5 mM CaCl2, 5 mM MgCl2, pH 7.4; 1 nM protein, aptamer 100 pM-10 uM; 4 C, 1 h; errors are SE. The note with it: copies: 1;1, single strand, predicted partly folded.

recombinant activated coagulation factor VII (FVIIa, AryoSeven), sequence (P08709 61-212, chain 1 of 2): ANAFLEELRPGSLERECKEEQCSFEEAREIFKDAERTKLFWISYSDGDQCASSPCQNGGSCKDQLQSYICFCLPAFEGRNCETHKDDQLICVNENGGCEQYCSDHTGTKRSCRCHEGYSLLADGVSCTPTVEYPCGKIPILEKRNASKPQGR
recombinant activated coagulation factor VII (FVIIa, AryoSeven), sequence (P08709 213-466, chain 2 of 2): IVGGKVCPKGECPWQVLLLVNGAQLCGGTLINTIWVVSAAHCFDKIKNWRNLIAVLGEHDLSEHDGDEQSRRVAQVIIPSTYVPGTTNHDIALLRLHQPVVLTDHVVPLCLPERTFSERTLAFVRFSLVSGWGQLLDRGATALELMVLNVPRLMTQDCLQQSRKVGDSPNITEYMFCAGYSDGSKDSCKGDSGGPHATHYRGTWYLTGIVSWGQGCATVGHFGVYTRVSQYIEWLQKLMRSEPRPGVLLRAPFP

B1: Apt44 (ssDNA)
DNA: CCGCACACCACGCGCATAATCCCGCGCACACGACTTGAAGTAGC
On to B1, for which the Kd – broadly, the concentration at which binding is half-saturated – was 167 ± 18 nM.

B2: Apt81 (ssDNA)
DNA: GGGAGATAGCCACGACCTATGCAGCCAGCCGCAGTGTAAGTGAATGCAGACATGGTCTAAGTGTCCAGGCTGTGCGAAAGC
Take B2: the dissociation constant Kd is 938 ± 149 nM.

The values above are taken from PMC5410128, “Can Aptameric Ligands Specific to Plasma Coagulation Factor VII Bind the Recombinant Form with High Affinity: Affinity Measurement by Fluorescence Method”.
